B1: H2-Kb / Ed28 (parent complex)
chain 1: AQSVTQPDARVTVSEGASLQLRCKYSYFGTPYLFWYVQYPRQGLQLLLKYYPGDPVVQGVNGFEAEFSKSNSSFHLRKASVHWSDWAVYFCAVSPGSGGKLTLGAGTRLQVNL
chain 2: DSGVVQSPRHIIKEKGGRSVLTCIPISGHSNVVWYQQTLGKELKFLIQHYEKVERDKGFLPSRFSVQQFDDYHSEMNMSALELEDSAMYFCASSPRASDYTFGSGTRLLVI
chain 3: not shown
chain 4: IQKTPQIQVYSRHPPENGKPNILNCYVTQFHPPHIEIQMLKNGKKIPKVEMSDMSFSKDWSFYILAHTEFTPTETDTYACRVKHDSMAEPKTVYWDRDM
chain 5: SIINFEKL

Variants of B1 are the subject of this experiment. The experiment is described as follows: % of reporter cells activated (NFAT-GFP), raw. Further: test concentration or dose not given here.
As to chain 5 I3Q, the ratio to parent was 0.449. Regarding chain 5 I3G, the ratio to parent was determined as 0.836.

Consider chain 5 I3M, for which the ratio to parent turned out to be 0.959. As for chain 5 I3C, the figure is 0.894; as for chain 5 I3T, 1.31. In the case of chain 5 I3Y, the ratio to parent stood at 0.369.

In the case of chain 5 I3W, the ratio to parent was 0.592. As for chain 5 I3F, the figure is 0.6; as for chain 5 I3N, 1.16; as for chain 5 I3D, 0.727. Regarding chain 5 I3P, the ratio to parent came out at 0.898. With chain 5 E6N, the ratio to parent worked out at 0.22.

For chain 5 E6V, the ratio to parent was found to be 0.0103. Turning to chain 5 E6G, the ratio to parent is 0.651.

On to chain 5 E6Y, for which the ratio to parent was 0.0885. Turning to chain 5 E6D, the ratio to parent amounted to 0.533. For chain 5 E6K, the ratio to parent amounted to 0.702.

Regarding chain 5 E6R, the ratio to parent was found to be 0.0718.

Take chain 5 E6F: the ratio to parent was determined as 0.013. As for chain 5 I2G, the ratio to parent was found to be 1.06. As for chain 5 I2P, the figure is 1.2; as for chain 5 I2K, 0.837; as for chain 5 I2H, 0.659. For chain 5 I2S, the ratio to parent came out at 1.14. Turning to chain 5 I2E, the ratio to parent came to 0.981. As for chain 5 I2Y, the figure is 0.58; as for chain 5 I2M, 0.857.

For chain 5 I2F, the ratio to parent was found to be 1.01.

Turning to chain 5 I2W, the ratio to parent is 0.702.

Turning to chain 5 I2Q, the ratio to parent was determined as 0.574.

Regarding chain 5 I2V, the ratio to parent worked out at 1.3. With chain 5 F5R, the ratio to parent came out at 0.774. On to chain 5 F5T, for which the ratio to parent came out at 1.17. Consider chain 5 F5M, for which the ratio to parent turned out to be 0.741. As for chain 5 F5N, the figure is 0.742; as for chain 5 F5V, 0.772. With chain 5 L8S, the ratio to parent was 0.563.

As for chain 5 L8K, the ratio to parent amounted to 0.584. Consider chain 5 L8T, for which the ratio to parent was 0.832.

As for chain 5 L8R, the ratio to parent is 0.915. Regarding chain 5 L8F, the ratio to parent amounted to 1.02. With chain 5 L8D, the ratio to parent came out at 0.475. The same measure for chain 5 L8A: 0.709; for chain 5 L8G: 0.947. As for chain 5 N4R, the ratio to parent came out at 0.227.

Take chain 5 N4F: the ratio to parent is 0.0123.

chain 5 N4T: the ratio to parent is 0.0349. The same measure for chain 5 N4Q: 0.00495; for chain 5 N4I: 0.167. For the variant chain 5 N4Y, the ratio to parent amounted to 0.0195.

As for chain 5 N4L, the ratio to parent amounted to 0.329. The same measure for chain 5 N4M: 0.00709; for chain 5 N4H: 0.0455; for chain 5 S1F: 0.965. chain 5 S1R: the ratio to parent worked out at 0.321. chain 5 S1N: the ratio to parent was 0.293. As for chain 5 S1P, the ratio to parent was 0.693. In the case of chain 5 S1I, the ratio to parent worked out at 0.433.

As for chain 5 S1W, the ratio to parent was 0.723. As for chain 5 S1Q, the figure is 0.81. With chain 5 S1E, the ratio to parent amounted to 0.798. Consider chain 5 S1K, for which the ratio to parent worked out at 0.445. For the variant chain 5 S1C, the ratio to parent was 0.59. For chain 5 K7T, the ratio to parent is 0.115.

With chain 5 K7D, the ratio to parent was 0.00937. Turning to chain 5 K7F, the ratio to parent came to 0.0786.

In the case of chain 5 K7N, the ratio to parent stood at 0.242. The same measure for chain 5 K7L: 0.244. Take chain 5 K7Q: the ratio to parent came out at 0.141. In the case of chain 5 K7V, the ratio to parent was 0.159. As for chain 5 K7R, the ratio to parent turned out to be 0.496.

In the case of chain 5 K7M, the ratio to parent came to 0.104. Consider chain 5 K7G, for which the ratio to parent was determined as 0.185. As for chain 5 K7P, the ratio to parent stood at 0.145. On to chain 5 K7A, for which the ratio to parent stood at 0.162.

For the origin of these results see article PMC11480844 (2024).
